This note sets out measurements from paper PMC5309844, “PDI regulates seizure activity via NMDA receptor redox in rats” (Scientific Reports, 2017).

The target in assay [1] is T1, NMDA receptor NR1 subunit (rat (endogenous in hippocampus), UniProt P35439 19-938).
T1 construct: NR1 subunit of the N-methyl-D-aspartate receptor, rat, endogenous in the hippocampus; source: endogenous, rat hippocampal tissue lysate (RIPA buffer)
Briefly: co-IP; rat hippocampal tissue lysed in RIPA buffer; equal amounts of total protein precipitated with the appropriate primary antibodies and protein G sepharose at 4 °C overnight; Western blot; normal, chronic epileptic, and control siRNA- or PDI siRNA-infused epileptic animals. As to conditions: partners not purified.

Assay [2] concerns the target T2, NMDA receptor NR2A subunit (rat (endogenous in hippocampus), UniProt Q00959 23-1464).
T2 construct: NR2A subunit of the N-methyl-D-aspartate receptor, rat, endogenous in the hippocampus; source: endogenous, rat hippocampal tissue lysate (RIPA buffer)
The assay is described as above. The note with it: partners not purified.

T2 sequence (Q00959 23-1464): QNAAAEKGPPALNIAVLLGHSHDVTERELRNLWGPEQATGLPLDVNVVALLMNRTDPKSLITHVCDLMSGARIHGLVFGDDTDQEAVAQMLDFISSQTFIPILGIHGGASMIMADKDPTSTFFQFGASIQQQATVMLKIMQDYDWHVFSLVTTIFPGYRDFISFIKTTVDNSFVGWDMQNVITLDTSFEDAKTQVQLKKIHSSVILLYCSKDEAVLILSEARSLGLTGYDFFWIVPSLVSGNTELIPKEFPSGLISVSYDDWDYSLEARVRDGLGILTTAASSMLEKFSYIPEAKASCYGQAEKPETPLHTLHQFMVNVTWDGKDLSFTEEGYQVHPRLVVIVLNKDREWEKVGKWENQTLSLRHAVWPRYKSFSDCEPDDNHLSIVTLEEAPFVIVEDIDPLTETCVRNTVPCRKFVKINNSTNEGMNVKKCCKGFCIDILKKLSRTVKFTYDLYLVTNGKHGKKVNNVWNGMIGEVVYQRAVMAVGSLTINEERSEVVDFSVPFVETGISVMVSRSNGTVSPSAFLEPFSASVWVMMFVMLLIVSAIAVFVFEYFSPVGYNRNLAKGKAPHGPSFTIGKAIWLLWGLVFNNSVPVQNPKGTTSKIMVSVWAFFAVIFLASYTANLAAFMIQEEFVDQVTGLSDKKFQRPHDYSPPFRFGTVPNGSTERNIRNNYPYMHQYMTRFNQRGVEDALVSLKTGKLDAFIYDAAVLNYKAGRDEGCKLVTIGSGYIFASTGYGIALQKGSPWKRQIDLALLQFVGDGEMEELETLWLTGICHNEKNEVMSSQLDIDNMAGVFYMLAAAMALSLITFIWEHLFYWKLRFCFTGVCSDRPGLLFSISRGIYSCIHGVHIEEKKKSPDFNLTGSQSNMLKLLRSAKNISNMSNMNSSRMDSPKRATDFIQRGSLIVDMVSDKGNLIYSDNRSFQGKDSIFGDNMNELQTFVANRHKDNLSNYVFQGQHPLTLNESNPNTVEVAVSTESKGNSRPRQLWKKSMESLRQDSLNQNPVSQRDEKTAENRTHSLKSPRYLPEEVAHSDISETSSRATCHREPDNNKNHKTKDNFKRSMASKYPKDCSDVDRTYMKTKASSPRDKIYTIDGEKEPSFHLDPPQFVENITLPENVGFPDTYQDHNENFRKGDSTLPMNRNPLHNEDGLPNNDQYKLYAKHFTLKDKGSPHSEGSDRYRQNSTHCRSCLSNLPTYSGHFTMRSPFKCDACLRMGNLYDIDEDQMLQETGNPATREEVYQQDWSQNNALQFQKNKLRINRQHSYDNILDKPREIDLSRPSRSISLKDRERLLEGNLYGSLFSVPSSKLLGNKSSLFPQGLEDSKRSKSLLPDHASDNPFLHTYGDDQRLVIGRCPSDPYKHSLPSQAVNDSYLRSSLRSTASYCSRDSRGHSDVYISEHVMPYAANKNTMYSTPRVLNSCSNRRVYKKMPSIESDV

B1: Protein disulfide isomerase (enzyme, rat (endogenous in hippocampus), UniProt P04785 20-509, looked up)
chain: DALEEEDNVLVLKKSNFAEALAAHNYLLVEFYAPWCGHCKALAPEYAKAAAKLKAEGSEIRLAKVDATEESDLAQQYGVRGYPTIKFFKNGDTASPKEYTAGREADDIVNWLKKRTGPAATTLSDTAAAESLVDSSEVTVIGFFKDAGSDSAKQFLLAAEAVDDIPFGITSNSDVFSKYQLDKDGVVLFKKFDEGRNNFEGEITKEKLLDFIKHNQLPLVIEFTEQTAPKIFGGEIKTHILLFLPKSVSDYDGKLSNFKKAAEGFKGKILFIFIDSDHTDNQRILEFFGLKKEECPAVRLITLEEEMTKYKPESDELTAEKITQFCHHFLEGKIKPHLMSQELPEDWDKQPVKVLVGKNFEEVAFDEKKNVFVEFYAPWCGHCKQLAPIWDKLGETYKDHENIVIAKMDSTANEVEAVKVHSFPTLKFFPASADRTVIDYNGERTLDGFKKFLESGGQDGAGDNDDLDLEEALEPDMEEDDDQKAVKDEL
notes: Protein disulfide isomerase (PDI), rat, endogenous in the hippocampus of Sprague-Dawley rats; also called PDI; source: endogenous, rat hippocampal tissue lysate (RIPA buffer)
In the case of B1, the “fold of co-precipitation in epileptic against normal animals” value in assay [1] and in assay [2] was roughly 2.4 fold in each case.
